Experiments:
[1] = tested on: β-catenin/TCF4 transcriptional activity; assay: 7TGC reporter assay; assay type: cell-based, human; conditions: PANC-1 cells, EGF (100 ng/mL) or CQ (100 μM)
Excerpt: The PCR products of STYK1, GSK3β, and Axin1 were cloned into pcDNA3.1-3×HA, pCMV-3×Flag (Sigma, E4401), and pCMV-mCherry (constructed by our lab) respectively. […] To make STYK1, β-catenin, GSK3β, or BLK mutants or truncations, a series of forwarding primers harboring the desired mutations were used in PCRs. The nucleotide sequences of all constructs were confirmed by DNA sequencing. […] DNA and interference RNA were transfected with Lipofectamine 3000 (Invitrogen, L3000015) according to the manufacturer’s instructions. shRNA for STYK1 #1: 5ʹ- [sequence] -3ʹ. #2: 5ʹ- [sequence] -3ʹ. siRNA for STYK1 was 5ʹ- [sequence] -3ʹ. siRNA for β-catenin was 5ʹ- [sequence] -3ʹ. siRNA for HRS was 5ʹ- [sequence] -3ʹ, siRNA for VPS24 was 5ʹ- [sequence] -3ʹ.

CyclinD1/Axin2/C-myc = assay: Wnt target gene expression (western blot, qRT-PCR); assay type: cell-based, human; conditions: PANC-1 cells, EGF (100 ng/mL) or CQ (100 μM)
Method: Whole-cell extracts were prepared with 1% sodium dodecyl sulfate lysis buffer with freshly added 1% proteinase inhibitor cocktail (Biomake, B14001) and 1 mM phenylmethylsulfonyl fluoride (PMSF, MCE, HY-B0496). Western blot was performed as described previously.[20]
Total RNA was extracted from cultured pancreatic cancer cells using Trizol reagent (Invitrogen) according to the manufacturer’s protocol. qRT-PCR was performed as previously described.^3 The mRNA expression level for each sample was normalized to the expression of GAPDH using the 2 ^-ΔΔct method^4 with three biological replicates of comparative qRT-PCR. The following primer sequences were used for qRT-PCR: GAPDH, (forward) 5′- […] -3′ and (reverse) 5′- […] -3′; CyclinD1, (forward) 5′- […] -3′ and (reverse) 5′- […] -3′; C-myc, (forward) 5′- […] -3′ and (reverse) 5′- […] -3′; Axin2, (forward) 5′- […] -3′ and (reverse) 5′- […] -3′; STYK1, (forward) 5′- […] -3′ and (reverse) 5′- […] -3′. Amplification was performed in an ABI Q3 real-time PCR system using a SYBR Green master mix (YEASEN, 11201ES08).

[2] = tested on: GSK3β sequestration in Rab5+ endosomes, PANC-1 cells; assay: Wnt-induced GSK3β within Rab5+ endosomes, PANC-1 cells; assay type: cell-based, human; conditions: Rab5 Q79L, n = 10
Method: (§1) PANC-1, AsPC-1, HEK293T, or HeLa cells were ﬁxed with 4% formaldehyde for 10-15 min and then blocked with 3% BSA and 0.1% Triton X-100 in PBS for 20 min at room temperature. Immunostaining was performed using the indicated antibody. Nuclei were counterstained with DAPI. Images were taken with a Leica Inverted Confocal SP8 (Leica, Germany).

GSK3β in MVBs = assay: Co-localization of GSK3β with Rab7 and CD63 (immunofluorescence); assay type: cell-based
Method: as §1

Row | Molecule | Wnt signaling in the 7TGC system [1] | STYK1-mediated alteration of the Wnt/β-catenin target genes C-myc, Axin2 (CyclinD1/Axin2/C-myc) | amount of GSK3β within Rab5+ endosomes [2] | separation of GSK3β into MVBs (GSK3β in MVBs; Wnt activation, discussion summary) | co-localization of GSK3β with Rab7 and CD63 (GSK3β in MVBs; under Wnt3a treatment)
1 | EGF: EGF (100 ng/mL) treatment (protein, UniProt P01133 23-1207, looked up, Pro-epidermal growth factor, EGF (100 ng/mL) treatment) Pro-epidermal growth factor: PQHWSCPEGTLAGNGNSTCVGPAPFLIFSHGNSIFRIDTEGTNYEQLVVDAGVSVIMDFHYNEKRIYWVDLERQLLQRVFLNGSRQERVCNIEKNVSGMAINWINEEVIWSNQQEGIITVTDMKGNNSHILLSALKYPANVAVDPVERFIFWSSEVAGSLYRADLDGVGVKALLETSEKITAVSLDVLDKRLFWIQYNREGSNSLICSCDYDGGSVHISKHPTQHNLFAMSLFGDRIFYSTWKMKTIWIANKHTGKDMVRINLHSSFVPLGELKVVHPLAQPKAEDDTWEPEQKLCKLRKGNCSSTVCGQDLQSHLCMCAEGYALSRDRKYCEDVNECAFWNHGCTLGCKNTPGSYYCTCPVGFVLLPDGKRCHQLVSCPRNVSECSHDCVLTSEGPLCFCPEGSVLERDGKTCSGCSSPDNGGCSQLCVPLSPVSWECDCFPGYDLQLDEKSCAASGPQPFLLFANSQDIRHMHFDGTDYGTLLSQQMGMVYALDHDPVENKIYFAHTALKWIERANMDGSQRERLIEEGVDVPEGLAVDWIGRRFYWTDRGKSLIGRSDLNGKRSKIITKENISQPRGIAVHPMAKRLFWTDTGINPRIESSSLQGLGRLVIASSDLIWPSGITIDFLTDKLYWCDAKQSVIEMANLDGSKRRRLTQNDVGHPFAVAVFEDYVWFSDWAMPSVMRVNKRTGKDRVRLQGSMLKPSSLVVVHPLAKPGADPCLYQNGGCEHICKKRLGTAWCSCREGFMKASDGKTCLALDGHQLLAGGEVDLKNQVTPLDILSKTRVSEDNITESQHMLVAEIMVSDQDDCAPVGCSMYARCISEGEDATCQCLKGFAGDGKLCSDIDECEMGVPVCPPASSKCINTEGGYVCRCSEGYQGDGIHCLDIDECQLGEHSCGENASCTNTEGGYTCMCAGRLSEPGLICPDSTPPPHLREDDHHYSVRNSDSECPLSHDGYCLHDGVCMYIEALDKYACNCVVGYIGERCQYRDLKWWELRHAGHGQQQKVIVVAVCVVVLVMLLLLSLWGAHYYRTQKLLSKNPKNPYEESSRDVRSRRPADTEDGMSSCPQPWFVVIKEHQDLKNGGQPVAGEDGQAADGSMQPTSWRQEPQLCGMGTEQGCWIPVSSDKGSCPQVMERSFHMPSYGTQTLEGGVEKPHSLLSANPLWQQRALDPPHQMELTQ | decreased Wnt signaling in the 7TGC system | down-regulated STYK1-mediated alteration of the Wnt/β-catenin target genes C-myc, Axin2 |  |  | 
2 | Wnt3a: Wnt3a, R&D systems (5036-WN) (protein, UniProt P56704 19-352, looked up) Protein Wnt-3a: SYPIWWSLAVGPQYSSLGSQPILCASIPGLVPKQLRFCRNYVEIMPSVAEGIKIGIQECQHQFRGRRWNCTTVHDSLAIFGPVLDKATRESAFVHAIASAGVAFAVTRSCAEGTAAICGCSSRHQGSPGKGWKWGGCSEDIEFGGMVSREFADARENRPDARSAMNRHNNEAGRQAIASHMHLKCKCHGLSGSCEVKTCWWSQPDFRAIGDFLKDKYDSASEMVVEKHRESRGWVETLRPRYTYFKVPTERDLVYYEASPNFCEPNPETGSFGTRDRTCNVSSHGIDGCDLLCCGRGHNARAERRREKCRCVFHWCCYVSCQECTRVYDVHTCK |  |  | remarkably increased the amount of GSK3β within Rab5^+ endosomes | supports the separation of GSK3β into MVBs | detectable co-localization with Rab7 and CD63

From paper PMC12209456, “Serine/threonine/tyrosine kinase 1 drives pancreatic carcinogenesis via GSK3β sequestration-mediated Wnt/β-catenin pathway hyperactivation” (Signal Transduction and Targeted Therapy, 2025)
